This is an account of results in doi:10.1101/2021.01.08.425619 (bioRxiv, 2021).

To fix the notation:
B1: Panx[263-541], subunit of recombinant SFiNX (domain or fragment)
chain: ASSQNESSKERKLRDTELDYVPVRPDEHFIRPIKFSNLIERRPPQVEFNTVNLSKADKRSLAVARAELVLEQIQQKANKEEPPEFHMVDTICKLPVNESFRNQDCFENPSPICNNMNVVYKFNSTPGTRIDLSKWGLETVPEATKRLLRLLGIDVARLKELQSTVKPSQRILKLKKEQLEQGLAPTEEQETATLYKNAATQTERRTATRDAGTQVRLESKLNGAFWQNPHFDPMNLTQHQSNVMLALQEIYQTLPSATMAVKLSRALAPALAIIKGRQP
B2: Nxf2[541-841], subunit of recombinant SFiNX (domain or fragment)
chain: LPSEYVRAVKEVFPQLTTLDGVDLQTNPGQSLQKNFLCDTGAYELVGAFLENYLREFENDEFRHNLYKYYSENSIFTLTCNYNVVQNHQTPKILQRLSKYNRHARNLRNKDYSKASDGVFFGCTYIVEILLQLPRVTHDFHSLQTDVMHYNGKGAVIYVAGLLRDEPPSTRNGHGSKTDIGGVLLGFSRQFVVTFDEANLGLGKRARRLKIANERLHITNPSKTAIRNAFSVNFPDPSERQAEEDSLDVKDHKLLLFQEVTGLISTWVTSIVEEADWDFERALKLFIQKNADHEIPDLAFA
B3: Drosophila melanogaster LC8 (residues 1-89), co-expressed with Panx peptides (natural protein)
chain: MSDRKAVIKNADMSEEMQQDAVDCATQALEKYNIEKDIAAYIKKEFDKKYNPTWHCIVGRNFGSYVTHETRHFIYFYLGQVAILLFKSG
B4: recombinant SFiNX consisting of Panx[263-541], Nxf2[541-841], Nxt1, and LC8 (complex)
chain 1: B1 chain
chain 2: B2 chain
chain 3: […]
chain 4: B3 chain
B5: His6-LC8, subunit of recombinant SFiNX (natural protein)
chain: B3 chain

Like-named read-outs stand apart in the source and are kept apart here.

Data set [1] concerns the target B3. The data set can be described thus: SEC-MALS. On the technique in general: In gel filtration, larger molecules generally elute earlier.
Data set [2] has as its target Drosophila melanogaster LC8 (residues 1-89), expressed in isolation for ITC (Drosophila melanogaster, UniProt Q24117 1-89). The data set can be described thus: ITC. For orientation: ITC needs no label: the signal is the heat of the interaction.
Data set [3] addresses B2. The data set can be described thus: SEC-MALS.
In data set [4] the target is Nxt1, subunit of recombinant SFiNX (Drosophila, UniProt Q9V3H8 1-133). The data set can be described thus: SEC-MALS.
Data set [5] deals with the molecule itself. The data set can be described thus: SEC-MALS.
Data set [6] concerns the molecule itself. The data set can be described thus: SEC-MALS. The source holds these as a separate data set.
Data set [7] concerns the target B1. The data set can be described thus: SEC-MALS.

Regarding TLYKNAATQTERRTATRDAGTQVRLE [Panx peptide residues 455-480 (Panx1+2), both LC8 binding sites], the “stoichiometry N” value in data set [1] was 2 Panx peptides per two LC8 homodimers.
With RTATRDAGTQVRLE [Panx peptide residues 467-480 (Panx2), LC8 binding site #2], in data set [1], the “stoichiometry N” value was 2 Panx peptides per one LC8 homodimer. In data set [2], the Kd is ~140 nM.
TLYKNAATQTER [Panx peptide residues 455-466 (Panx1), LC8 binding site #1]: in data set [1], the “stoichiometry N” value is 2 Panx peptides per one LC8 homodimer. In addition, in data set [2], the equilibrium dissociation constant (Kd) is ~75 nM.
Turning to B1, in data set [3], the binding result is “binds”.
On to B2, for which the binding result in data set [4] was “binds”.
B3: the “stoichiometry N” value in “SEC-MALS [5]” is 2.
Take B4: the “stoichiometry N” value in the data set “SEC-MALS [6]” came out at 2.
B5: the binding result in data set [7] is listed as “binds”.

A word on the stoichiometry N: it is a count of units in the complex or per binding partner. The term Kd denotes the concentration at which binding is half-saturated. Read a high Kd as weaker binding.
